{"source": "the DeepSol protein solubility set"}
{"assay": "soluble on expression in E. coli; label from the status in PepcDB or PDB records"}
{"sequence": "MIDVGGWYNKAELKAKGDEIVKEAKLATRREAESYRAALDAQAQQEARSKGVENTEHIRGMNPITPQEEAEFAAYLDESFSWIPSAFEGYGDPNPDDFDGIIKDLAKVEGTFGGSQSSTKNGDLAWTEKAKSEIEEWKGVFAENLYNNLLLPLPTIQDNHGKIAHVLTEAMKGTQNIYNGQKRDISQLADDTIKQLKKCGTRDGDNTKLGLTVAACLMGVAAAALALPSGGTSVYVTGIVMASISSSTIITNATVKPGDGDIGGKTVNDVIKSMSDGMSRISTEVSEQEQKVVKVLSKNYEMLTGLRQLGNSSKKPTPISPMRPTIADSKNPSSGLKPEGPQ", "soluble on expression in E. coli": "not soluble"}
{"sequence": "MIEISTSATSTTVTIEGDLDLSTRPQFHAATAKLGAVRRPLLVIDASRITFLDSTGAAFLISLADATRKRGGAAVLRGADERVLFVLETCGALDFFRLDPEPGLQEGDGGTRLRG", "soluble on expression in E. coli": "not soluble"}
{"sequence": "MIELEGVPELVDPVMVAAFEGWNDAGDAASTAVAHLDREWKGEVFAALDAEDYYDFQVNRPTVFMEDGVRKITWPTTRLSVVRVGGDKPRDLVLVRGIEPSMRWRSFCNELLGFAHELGVELVVVLGALLGDTPHTRPVPISGTTSDADLARRMDLEETKYEGPTGIVGILQEACTHAGVPAVSLWAAVPHYVSQPPNPKATLALLNRLEDLIGVRVPLGELPEDARAWQVGVDQLAAEDTEVAEYVQSLEEARDTA", "soluble on expression in E. coli": "soluble"}
{"sequence": "MIELIDPISKQRLEESPEGLRNENGIVVYPLINGAYRVAASDNYTSNFGLEWNTFQKTQIDKFSGNTVSEERLFAQTNWQKNGLEGETILEVGSGAGRFSQIMLDHTKATLYSVDYSEAVEANYRNNGPHERFKLFQASIYELPFKQASFDRVICLGVLQHTPDFKASVKALVEMVKPGGELVIDFYPIRNVFTKVHGKYLLRPILKRVNHHRLMSLIRNNIDFLISIYTFNRRIGLGVFNRFVPICEIERTLPKGMTPEQLKEWIILDTFDMFSPEYDQPQRLSTVAKWVKEFGMADVDASWVTYHGKLEAPTVRGRKVLEHHHHHH", "soluble on expression in E. coli": "soluble"}
{"sequence": "MIELKHLRTLQALRNTGSLAAAATQLHQTQSALSHQFSDLEQRLGFRLFVRKSQPLRFTTQGEILLQLAEQVLPQIKQALQTCNEPHQTALRIAIECHSCIQWLTPALDNFHKHWPQVTMDFKSGVTFDPQPALQQGELDLVLTSDILPRSGLHYSPMFDFEVRLVLAPDHPLANKDRIEPEDLAPEVLMIYPVQRQRLDVWRHFLQPAGVSPSSKNVDNTLLLIQMVSARMGIAALPHWVVESFERQGLVVTKTLGEGLWSRLYAAVRDGEQRQPVTEAFIRSARQHACDHLPFVKDAVRSNAGVPTAKPLSPQLQ", "soluble on expression in E. coli": "not soluble"}
{"sequence": "MIEQCWSEIQEEQSPTSQIGQLRVQGLRDKRVIVEYIPLILKTFLLSKTSGVGPLIIPVRCFTCGKVIGDKYYEFKRRVEAGEDPEKVLDDLGLERYCCRRMLLSHVELIDDIMHYKVY", "soluble on expression in E. coli": "soluble"}
{"sequence": "MIERLLEIKKIRADRADKAVQRQEYRVANVAAELQKAERSVADYHVWRQEEEERRFAKAKQQTVLLKELETLRQEIALLREREAELKQRVAEVKVTLEQERTLLKQKQQEALQAHKTKEKFVQLQQQEIAEQSRQQQYQEELEQEEFRTVDIIAAALEHHHHHH", "soluble on expression in E. coli": "soluble"}
{"sequence": "MIFAYNKEHVGDVLLVIVADDQGAENQVKRVGDVARVSLVEAPETVVAWNIFNASALLGDINGTGQVTLTDEQIEKVNTAIKDAGFSETLEKDDTPKIVVGFVKSCKKHPDSDHLSITQTEVDNGEILQIVCGAPNIKAGQKVVVAKPGAMMPDGLMIWPGVLRGEESFGMICSAKELRLPNAPAKKGILELPFDAEVGSAFAVGE", "soluble on expression in E. coli": "not soluble"}
{"sequence": "MIFHDVVESDLHDWECDDDYVCKFCTVRVNNWKIEIYQLWHYFFFLKDVVGVIVRKLNIAIDRDYTCEGLHVAGLIGYDYDKVEEYTGMCTICKLGDCGGMCRRVVEHCKKCGPIQEGVFETPFEKPHHFESLEITSFTIDCLLYGNRFRPTLVNFKNAPITVDSLSINAPSSGIPKVFLSAMMISKWKLLILKTCEDSPYAMEELQLSLTGKMLEEMSNNDYKVKHFRKCFPTKKMSIKILSQIENIQDIRKLCIQEKNLDLAIDIICDKSLLLKFWVSQKNTRGSFWKMKML", "soluble on expression in E. coli": "not soluble"}
{"sequence": "MIFLSFKKSFKNITIEGKFTFEKGFNVILGPSGAGKSTVIKVMCGIEKPDEGFMKCCDEVFFDTKKGVFLPPQKRRLGVVFQSHNLFPHMTVRENIEFALKKAKEPQFTVEELLEKFNLKGHENKYPGELSGGQRQRVAVIRAIVFNPRAVLMDEPFSSLDFKTKLSIMEFIKSVHIEKPVIIVTHDLFEALYLGQKFFLMDNGKKVKEGGKEVLKEYVDLEKIKKFLS", "soluble on expression in E. coli": "soluble"}
{"sequence": "MIFMFRKVLFPTDFSEGAYRAVEVFEKRNKMEVGEVILLHVIDEGTLEELMDGYSFFYDNAEIELKDIKEKLKEEASRKLQEKAEEVKRAFRAKNVRTIIRFGIPWDEIVKVAEEENVSLIILPSRGKLSLSHEFLGSTVMRVLRKTKKPVLIIKEVDENELAKTKGTSG", "soluble on expression in E. coli": "soluble"}
{"sequence": "MIFTTQVKYTYDTLSTFPEDMPSREGFTLISDHFGAGMLAPMEVVVNSKESMKSSLENVNGVASVTGPERSKGYQKYTLILKDNPYSNEAMDVVPKVRAAADKGNDVYIAGQTATQYDDRAVTEHDEKVIIPLEHHHHHH", "soluble on expression in E. coli": "soluble"}
{"sequence": "MIGGSGRFLVNLESLNGVESIGNLTKHRTAPVVLKTSTGYLVRYVPVISGEALAHAYQASLVDIAKKEGLPVGNLSSQYEFIKFSTDEALKIEGIKEPKDYNDARRFEVEVMLKDVIADVGGFMYAGSAPVRRTSRIKLGYMIPALRGDEIPAQLEAQFHVRFSNKPVKGSQAIFNVEVSSALYTFSFELDEDLIAVPSTVGEKVKGEEELERQKARRVDSAIKALYSLLAGNFGGKRSRFLPSMKLMSLVVVKTDFPFIPEPGHDDSYIKTTVMRLEKAKSVLNGNVAKVYVINNEGIEVGEGATVLSSVEDLVAKLKEK", "soluble on expression in E. coli": "not soluble"}
{"sequence": "MIGPENCNSVSEPIAYVIILAGGRSSRMGYDKAQVMVDGRRLIDLCLESIASVHAHPIVVSGQDLQLTAAVTQVMEEPAFGGPVAGIAAGMRCCDTKAGLIGVIAVDAPRSGNYLNQLRRVVLTHPEVGVAHAVVEGYDQPLLAVWRYEALTQALHALGSPRNVAAKRLLRSATTPVIAVPVDSSARDYDTVAELSALGRVRLRLEHHHHHH", "soluble on expression in E. coli": "not soluble"}
{"sequence": "MIGQTNLFDDVLKQDERFVIVVQALEEKNGQLLKRTLREYPGLNHKQMNDLFTHLKELFSEESFAENQSAFSITVYTNLDYTADQIYAHVKRFRGKHDWTQTAKLEHHHHHH", "soluble on expression in E. coli": "soluble"}
{"sequence": "MIHAARSLAGSRAGPLLALLLLGLATARAEPVDGLPLRADGDGRWSLAAGRYAGNFVIDRPLHLRCEAGAELDGGGHGSLLTLTSPGITVEGCRLRNWGRNLTELDAAIFVGKAASGAVIRGNDLRGAGFGVWLDATVGAQVLDNRIEGDESVRSQDRGNGIHLYAVKDALVRGNRVSHTRDGVYIDTSNDSSIEANRFEELRYGVHYMFTHNSRVTDNLTRRTRTGYALMQSRKLTVTGNRSIDDENYGILMNYITYSTLAGNRVEGVRSGSTGDAMISGAEGKALFIYNSLFNRIEGNSFADSALGIHLTAGSEDNRIAGNAFIGNRQQVKYVASREQEWSADGRGNYWSDYLGWDRDDDGLGDVAYEPNDNVDRLIWLYPQVRLLLNSPSIELLRWVQRAFPVVRSPGVRDSHPLMRMPAAEPRPLEHHHHHH", "soluble on expression in E. coli": "not soluble"}
{"sequence": "MIHDYHWRRGKRRKLIVMMETRMMIIMMTIKPPHDIYREQQNHHDDETKRSTKHCVTATHPWPRPAASCFRCPLRGGHHRRRPACALPHGWSVMNSCSLEHHHHHH", "soluble on expression in E. coli": "not soluble"}
{"sequence": "MIHQFHSEQQFRSLGMCVVSTFGSGRACTFIGALYAIHQLNNGVEPNIFEIMKTIKQQRPGAIESFPQYSGVYAIVLDYISRKRGGKSDPVNKYINRFLADLTEILPACSTLPVMNPSTELH", "soluble on expression in E. coli": "not soluble"}
{"sequence": "MIHSLFLINSSGDIFLEKHWKSVVSRSVCDYFFEAQERATEAENVPPVIPTPHHYLLSVYRHKIFFVAVIQTEVPPLFVIEFLHRVVDTFQDYFGVCSEPVIKDNVVVVYEVLEEMLDNGFPLATESNILKELIKPPTILRTVVNTITGSTNVGDQLPTGQLSVVPWRRTGVKYTNNEAYFDVVEEIDAIIDKSGSTVTAEIQGVIDACVKLTGMPDLTLSFMNPRLLDDVSFHPCVRFKRWESERILSFIPPDGNFRLLAYHVSAQNLVAIPVYVKHSISFRDSSSLGRFEITVGPKQTMGKTIEGVIVTSQMPKGVLNMSLTPSQGTHTFDPVTKMLSWDVGKINPQKLPSLKGTMGLQVGASKPDENPTINLQFKIQQLAISGLKVNRLDMYGEKYKPFKGIKYMTKAGKFQVRT", "soluble on expression in E. coli": "not soluble"}
{"sequence": "MIIILRYNKQVFYKYKGDSVMRNRTSVMRKRQMQEVTAKRTKLGKIAMTQKLEATEKQFIVTQGQPCQTQLAEGKFLSYQYNDQIFVHGGRCIELVDSNIVSTAHASLLITILLEGKLSFGYDDLQFDLDASDTPQGVVVNLIHPANFRRSLIENNQINKINILVKPQWLEYRSEESCCSTAFFETHQAFYHLELNQALTELATELTNRDTPHRFQDKLEIESLIYQILFHATQQMPQDFCPQNTNSYRDK", "soluble on expression in E. coli": "not soluble"}
{"sequence": "MIITDVEVRVFRTTTRRHSDSAGHAHPGPAHQVEQAMLTVRTEDGQEGHSFTAPEIVRPHVIEKFVKKVLIGEDHRDRERLWQDLAHWQRGSAAQLTDRTLAVVDCALWDLAGRSLGQPVYKLIGGYRDKVLAYGSIMCGDELEGGLATPEDYGRFAETLVKRGYKGIKLHTWMPPVSWAPDVKMDLKACAAVREAVGPDIRLMIDAFHWYSRTDALALGRGLEKLGFDWIEEPMDEQSLSSYKWLSDNLDIPVVGPESAAGKHWHRAEWIKAGACDILRTGVNDVGGITPALKTMHLAEAFGMECEVHGNTAMNLHVVAATKNCRWYERGLLHPFLEYDDGHDYLKSLSDPMDRDGFVHVPDRPGLGEDIDFTFIDNNRVR", "soluble on expression in E. coli": "soluble"}
{"sequence": "MIITTSRKPSQRTRSLVNDLARVFNFKILNRGKIPLSELIENKDDMIIVEELKGNPGRLKIFNFENNKILSMNLSLKLQREVSGKAFKNSGKLGSKFDKNTEHLKEFFFEYLFKKLSNYKEENFEVVITFKTVDESTFYIEVHKGSENMGPSLKIKTVKILDIELEHHHHHH", "soluble on expression in E. coli": "not soluble"}
{"sequence": "MIIVHLCGGLGNQMFQYAAGLAAAHRIGSEVKFDTHWFDATCLHQGLELRRVFGLELPEPSSKDLRKVLGACVHPAVRRLLAGHFLHGLRPKSLVIQPHFHYWTGFEHLPDNVYLEGYWQSERYFSNIADIIRQQFRFVEPLDPHNAALMDEMQSGVSVSLHIRRGDYFNNPQMRRVHGVDLSEYYPAAVATMIEKTNAERFYVFSDDPQWVLEHLKLPVSYTVVDHNRGAASYRDMQLMSACRHHIIANSTFSWWGAWLNPRPDKVVIAPRHWFNVDVFDTRDLYCPGWIVLLEHHHHHH", "soluble on expression in E. coli": "not soluble"}
{"sequence": "MIKATDRKLVVGLEIGTAKVAALVGEVLPDGMVNIIGVGSCPSRGMDKGGVNDLESVVKCVQRAIDQAELMADCQISSVYLALSGKHISCQNEIGMVPISEEEVTQEDVENVVHTAKSVRVRDEHRVLHVIPQEYAIDYQEGIKNPVGLSGVRMQAKVHLITCHNDMAKNIVKAVERCGLKVDQLIFAGLAASYSVLTEDERELGVCVVDIGGGTMDIAVYTGGALRHTKVIPYAGNVVTSDIAYAFGTPPSDAEAIKVRHGCALGSIVGKDESVEVPSVGGRPPRSLQRQTLAEVIEPRYTELLNLVNEEILQLQEQLRQQGVKHHLAAGIVLTGGAAQIEGLAACAQRVFHTQVRIGAPLNITGLTDYAQEPYYSTAVGLLHYGKESHLNGEAEVEKRVTASVGSWIKRLNSWLRKEF", "soluble on expression in E. coli": "not soluble"}
